Measured values: patent US20240076386A1 (Pfizer, published 2024)
Where a chain is given by its changes, count along the chain named.

Key:
[1] = target: T1, human P-selectin expressed on CHO cells (human, UniProt P16109 42-830); experiment: flow cytometry, CHO cells
T1 construct: whole, on cells; also called CHO-human P-selectin cells; CHO-P-selectin cells
T1 sequence (looked up): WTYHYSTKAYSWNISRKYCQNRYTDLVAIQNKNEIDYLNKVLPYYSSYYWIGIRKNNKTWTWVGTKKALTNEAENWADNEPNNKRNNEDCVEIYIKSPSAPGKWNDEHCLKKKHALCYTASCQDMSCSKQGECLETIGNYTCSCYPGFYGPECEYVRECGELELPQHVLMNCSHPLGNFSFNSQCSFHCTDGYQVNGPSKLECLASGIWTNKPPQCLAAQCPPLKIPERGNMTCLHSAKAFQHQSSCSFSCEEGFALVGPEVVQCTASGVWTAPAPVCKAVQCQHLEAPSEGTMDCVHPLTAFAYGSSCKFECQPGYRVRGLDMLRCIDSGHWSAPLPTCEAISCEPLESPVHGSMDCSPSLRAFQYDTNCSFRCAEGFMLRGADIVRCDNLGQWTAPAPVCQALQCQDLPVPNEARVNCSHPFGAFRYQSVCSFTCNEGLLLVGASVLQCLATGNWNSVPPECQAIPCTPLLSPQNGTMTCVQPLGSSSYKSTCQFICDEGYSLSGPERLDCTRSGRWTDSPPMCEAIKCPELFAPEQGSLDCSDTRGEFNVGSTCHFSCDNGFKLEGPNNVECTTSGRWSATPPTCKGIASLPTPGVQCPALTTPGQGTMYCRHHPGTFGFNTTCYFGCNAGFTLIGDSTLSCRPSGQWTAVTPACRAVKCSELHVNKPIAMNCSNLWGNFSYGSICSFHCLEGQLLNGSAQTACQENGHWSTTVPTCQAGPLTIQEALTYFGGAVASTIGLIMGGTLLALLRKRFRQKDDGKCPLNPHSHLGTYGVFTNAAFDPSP
Procedure: Cells were maintained in growth medium at 37° C., 5% CO₂ and 95% air in a humidified incubator. Methotrexate or Zeocin were removed from the medium prior to culture for experiments. CHO-E selectin cells or P-selectin cells were detached from T-150 flasks using citric saline (135 mM KCl, 15 mM sodium citrate) and immediately re-calcified with the addition of CaCl₂) to the detached cells to a final concentration of 1 mM. Growth media was immediately added to the detached cells, then centrifuged at 300×g for 5 minutes at room temperature to pellet the cells. Cells were plated into 96-well V-bottom plates in cold CHO buffer consisting of phosphate buffered saline (PBS), pH 7.4 containing bovine serum albumin (BSA; Sigma-Aldrich) at final concentration of 1%, calcium chloride at final concentration of 1 mM, and sodium azide at a final concentration of 0.1%, for 5 minutes on wet ice. After incubation, the cells were centrifuged at 300×g for 2 minutes at 4° C. to remove the buffer.
After incubation, antibodies were removed and the cells were washed three times by centrifugation at 300×g for 1 minute at 4° C. and resuspended in cold CHO buffer. The washed cells were incubated for 30 minutes on wet ice with 100 μL of a 1:1000 dilution of APC-conjugated AffiniPure F(ab′)₂ Fragment Goat Anti-human IgG, Fcγ (Jackson Imnnunoresearch). The cells were washed three or four times prior to resuspension in CHO buffer for flow cytometric analysis. A Becton Dickinson LSRFortessa instrument using 640 nanometer laser line was used to acquire cell fluorescence data. Geometric mean fluorescence of cells was analyzed by FlowJo software package (FlowJo, LLC) and plotted against antibody concentration. The estimated EC₅₀ values were calculated using nonlinear regression analysis in the Prism suite (GraphPad, version 8) (Table 8).

[2] = target: T2, soluble recombinant human P-selectin (human, UniProt P16109 42-771, limits assumed); experiment: direct binding ELISA on immobilized human P-selectin, absorbance at 450 nm
T2 sequence (looked up): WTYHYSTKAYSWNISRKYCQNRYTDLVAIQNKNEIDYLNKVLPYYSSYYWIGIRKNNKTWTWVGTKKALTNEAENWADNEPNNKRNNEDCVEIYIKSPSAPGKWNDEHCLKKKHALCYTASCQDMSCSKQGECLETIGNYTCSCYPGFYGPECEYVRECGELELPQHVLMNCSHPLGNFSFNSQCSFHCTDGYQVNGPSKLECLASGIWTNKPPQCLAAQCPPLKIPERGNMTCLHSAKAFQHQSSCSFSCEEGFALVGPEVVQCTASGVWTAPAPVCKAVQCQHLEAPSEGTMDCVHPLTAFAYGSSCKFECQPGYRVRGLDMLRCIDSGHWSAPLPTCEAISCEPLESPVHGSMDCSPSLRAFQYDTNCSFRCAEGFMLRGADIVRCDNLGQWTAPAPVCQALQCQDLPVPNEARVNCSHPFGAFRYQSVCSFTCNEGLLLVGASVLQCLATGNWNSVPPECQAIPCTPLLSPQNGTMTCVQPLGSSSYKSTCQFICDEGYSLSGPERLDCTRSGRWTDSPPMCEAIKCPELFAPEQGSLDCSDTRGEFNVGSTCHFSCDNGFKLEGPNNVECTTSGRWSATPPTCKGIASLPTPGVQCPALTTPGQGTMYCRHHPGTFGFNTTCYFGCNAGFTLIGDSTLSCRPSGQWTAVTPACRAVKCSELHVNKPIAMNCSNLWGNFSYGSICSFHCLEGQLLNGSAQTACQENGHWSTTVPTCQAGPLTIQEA
Procedure: Recombinant histidine tagged human P-, E- or L-selectin (Sino Biologicals), mouse E-selectin (Sino Biologicals), rat E-selectin (Sino Biologicals) and Cynomolgus monkey E-selectin (Sino Biologicals) stock solutions were prepared to a final concentration of 1 μg/mL in phosphate buffered saline without calcium and magnesium. Controls included an L-selectin directed antibody (BioLegend; 304811) or P-selectin directed antibody or a negative control IgG. One hundred μL per well of the diluted recombinant selectin proteins were added into a Ni-NTA HisSorb 96 well plate (Qiagen; 35061). Plates were incubated on an orbital shaker at room temperature for 2 hours. Following the incubation, the plates were washed 3 times with 200 μL of wash buffer (50 mM TRIS [trisaminomethane]; 150 mM sodium chloride; 0.05% polysorbate 20, pH 7.4). To decrease nonspecific binding, plates were treated with 200 μL of blocking buffer (BD Opteia buffer; 555213; BD Biosciences), incubated on an orbital shaker for 1 hour at room temperature and washed as described above. […] One hundred μL specific detection antibodies (described below) were added and incubated for 1 hour: [0556] […] Anti L-selectin and anti-rat-E-selectin antibodies were detected using 1 to 25000 dilution of Peroxidase-conjugated AffiniPure Goat Anti-Mouse IgG (H+L); (Jackson ImnnunoResearch Lab).
Plates were washed and 100 μL per well of 1-Step Ultra TMB substrate (Thermo Scientific) was added and incubated for 5 minutes at room temperature. Reactions were stopped with 100 μL of 2 M sulfuric acid and absorbance read at 450 nm (Spectramax M5e).

B1: anti-E-selectin antibody 0158 chimera (antibody, human IgG1, kappa, V domains shown)
VH: QVQLKESGPGLVQPSETLSLTCTVSGFSISTYNVHWLRQPPGKGLEWMGMMWSGGSPDYNSALKSRLSISRDTSKNQVFLKMNSLQSEDTTTYYCARWGGGFDYWGQGVMVTVSS
VL: DIVLTQSPTTLSVTPGETVSLSCRASHSIGTNLHWYQQKTNESPRLLIKFTSQSISGIPSRFSASGSGTDFTLNINNVEFDDVSSYFCQQTQSWPLTFGSGTKLEIKR
notes: rat VH/VL on effector-null human IgG1 and human kappa
binding result [1]: no binding

B2: anti-E-selectin antibody 0159 chimera (antibody, human IgG1, kappa, V domains shown)
VH: EVQLQQSGAELGKPGTSVKLSCKVSGYNIRSTYMHWVSQRPGKGLEWIGRIDPANGNTIYAEKFKRKATLTADTSSNTAYMQLSQLKSDDRAIYFCAMEVRVSFEYWGQGVMVTVSS
VL: DIQMTQSPSFLSASVGDRVTINCKASQNINKYLDWYQQKLGEGPKLLIYYTNNLHTGIPSRFSGSGSGTDFTLTISSLQPEDVATYFCLQHDSGYTFGAGTKLELKR
notes: as for B1
binding result [1]: no binding

B3: anti-E-selectin antibody 0170 chimera (antibody, human IgG1, kappa, V domains shown)
VH: EVQLQQSGAELGKPGTSVKLSCKVSGYSIRSTYMHWVNQRPGKGLEWVGRIDPANGNTIYAERFKNKATLTADTSSNTAYMQLSQLKSDDTAIYFCAVEILGIFDYWGQGVMVTVSS
VL: B2 VL with N30D, G43A, I48M, Y50N, N53S, D92N
notes: as for B1
binding result [1]: no binding

B4: anti-E-selectin antibody 0180 chimera (antibody, human IgG1, kappa, V domains shown)
VH: EVQLQQSGAELGKPGTSVKLSCKVSGYKIRSSYMHWVNQRPGKGLEWIGRIDPANGNTIYGDKFKSKATLTSDTSSNTAYIQLSQLKSDDTAIYFCAIDIGTTFDYWGQGVMVTVSS
VL: DIQMTQSPSFLSASVGDRVTINCKASQHINRYLNWYQQKLGEAPKLLIYDANNLQTGIPSRFSGSGSGTDFTLTISSLQPEDVATYFCLQHNSWPNTFGAGTKLELKR
notes: as for B1
binding result [1]: no binding

B5: humanized anti-E-selectin antibody 0841 (antibody, human IgG1, kappa, V domains shown)
VH: EVQLVESGGGLVQPGGSLRLSCAASGYNIRSSYMHWVRQAPGKGLEWVARIDPANGNTIYAEKFKIRFTISADNAKNSAYLQMNSLRAEDTAVYYCAMDLYSTSEYWGQGTLVTVSS
VL: DIQMTQSPSSLSASVGDRVTITCKTSQNINRYLNWYQQKPGKAPKLLIYNANSLQTGVPSRFSGSGSGTDFTLTISSLQPEDFATYFCLQDNSWPLTFGQGTKVEIKR
notes: effector-null human IgG1, kappa
binding result [2]: no binding (tested: 10 ug/ml)

B6: anti-E-selectin antibody 0164 chimera (antibody, human IgG1, kappa, V domains shown)
VH: EVQLQQSGAEFGKPGTSVKLSCKVSGYNIRSSYMHWVNQRPGKGLEWIGRIDPANGNTIYAEKFKIKAILTADSSSNTAYMQLSQLKSDDTAIYFCAMDLYSTSEYWGQGVMVTVSS
VL: B4 VL with A25T, H28N, D50N, N53S, G64A, S76N, H91D, N96L, A100S, L106I
notes: as for B1
binding result [1]: no binding

B7: optimized anti-E-selectin antibody 1282 (antibody, human IgG1, kappa, V domains shown)
VH: B5 VH with N28A, S32A, A61V, E62D, K63S, F64V, K65E, I66G
VL: B5 VL with N30E, N50A, N52S, T56S, S93A
notes: as for B5
binding result [2]: no binding (tested: 10 ug/ml)

B8: optimized anti-E-selectin antibody 1284 (antibody, human IgG1, kappa, V domains shown)
VH: B5 VH with N28A, S32A, A61V, K63S, F64V, K65E, I66G
VL: B5 VL with N30E, N50A, N52S, T56S, S93A
notes: as for B5
binding result [2]: no binding (tested: 10 ug/ml)

B9: optimized anti-E-selectin antibody 1444 (antibody, human IgG1, kappa, V domains shown)
VH: B5 VH with N28A, S32A, A61V, E62D, K63S, F64V, K65T, I66G
VL: B5 VL with N30E, N50A, N52S, T56S, S93A
notes: as for B5
binding result [2]: no binding (tested: 10 ug/ml)

B10: optimized anti-E-selectin antibody 1448 (antibody, human IgG1, kappa, V domains shown)
VH: B5 VH with N28A, S32A, A61V, E62D, K63S, F64V, I66E
VL: B5 VL with N30E, N50A, N52S, T56S, S93A
notes: as for B5
binding result [2]: no binding (tested: 10 ug/ml)
